According to US20250163127A1 (published 2025):

T1: TIGIT (human, UniProt Q495A1)
T1 sequence: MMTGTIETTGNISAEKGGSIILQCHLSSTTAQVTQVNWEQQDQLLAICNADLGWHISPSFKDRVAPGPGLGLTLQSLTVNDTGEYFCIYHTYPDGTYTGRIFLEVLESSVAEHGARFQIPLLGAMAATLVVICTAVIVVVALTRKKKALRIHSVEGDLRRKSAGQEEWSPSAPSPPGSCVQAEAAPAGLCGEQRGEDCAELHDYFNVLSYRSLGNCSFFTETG

T2: human CD86 (human)
T2 chain: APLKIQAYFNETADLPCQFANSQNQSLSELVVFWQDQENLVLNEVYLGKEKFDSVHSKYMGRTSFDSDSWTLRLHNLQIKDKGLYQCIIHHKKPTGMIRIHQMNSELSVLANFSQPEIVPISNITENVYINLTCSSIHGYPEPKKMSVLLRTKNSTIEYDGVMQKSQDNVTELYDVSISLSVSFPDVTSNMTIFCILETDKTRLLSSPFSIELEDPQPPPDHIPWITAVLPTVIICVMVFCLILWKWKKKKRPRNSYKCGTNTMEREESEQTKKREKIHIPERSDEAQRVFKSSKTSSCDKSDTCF

T3: CD80 (human)
T3 chain: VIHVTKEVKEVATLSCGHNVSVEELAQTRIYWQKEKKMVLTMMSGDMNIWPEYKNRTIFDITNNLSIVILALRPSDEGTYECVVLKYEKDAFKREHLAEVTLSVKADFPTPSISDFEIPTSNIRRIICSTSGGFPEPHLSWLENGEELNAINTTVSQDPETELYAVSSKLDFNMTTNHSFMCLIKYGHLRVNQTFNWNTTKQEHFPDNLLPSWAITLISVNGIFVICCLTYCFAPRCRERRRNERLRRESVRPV

T4: human TIGIT (human, UniProt Q495A1)
T4 sequence: T1 sequence

B1: CD58 3650-CD155 665-Fc (Fc fusion)
chain: SQQIYGVVYGNVTFHVPSNVPLKEVLWKKQKDKVAELENSEFRAFSSFKNRVYLDTVSGSLTIYNLTSSDEDEYEMESPNITDTMKFFLYVLESGGGGSGGGGSGGGGSWPPPGTGDVVVQAPTQVSGFLGDSVTLPCYLQVPNMEVTHVSQLTWARHGESGSMAVFHQTQGPWYAESKRLEFVAARLGAELRNASLRVFGLRAEDEGNYTCQFVTFPQRSRSVDIWLRVLGSGGGGSEPKSSDKTHTCPPCPAPEAEGAPSVFLFPPKPKDTLMISRTPEVTCVVVDVSHEDPEVKFNWYVDGVEVHNAKTKPREEQYNSTYRVVSVLTVLHQDWLNGKEYKCKVSNKALPAPIEKTISKAKGQPREPQVYTLPPSRDELTKNQVSLTCLVKGFYPSDIAVEWESNGQPENNYKTTPPVLDSDGSFFLYSKLTVDKSRWQQGNVFSCSVMHEALHNHYTQKSLSLSPG
B2: CD155 665-CTLA-4 3037-Fc (Fc fusion)
chain: WPPPGTGDVVVQAPTQVSGFLGDSVTLPCYLQVPNMEVTHVSQLTWARHGESGSMAVFHQTQGPWYAESKRLEFVAARLGAELRNASLRVFGLRAEDEGNYTCQFVTFPQRSRSVDIWLRVLGGGGSGGGGSGGGGSKAMHVAQPAVVFASSHGIASFVCEYASPWKATEVRVTVLRQADSQVTEVCAATYMTGNELTFLDDSICTGTSSGNQVNLTIQGLRAMDTGLYICKVEQMYPPPYLLGIGNGTQIYVIDPEPCPDSDGSGGGGSEPKSSDKTHTCPPCPAPEAEGAPSVFLFPPKPKDTLMISRTPEVTCVVVDVSHEDPEVKFNWYVDGVEVHNAKTKPREEQYNSTYRVVSVLTVLHQDWLNGKEYKCKVSNKALPAPIEKTISKAKGQPREPQVYTLPPSRDELTKNQVSLTCLVKGFYPSDIAVEWESNGQPENNYKTTPPVLDSDGSFFLYSKLTVDKSRWQQGNVFSCSVMHEALHNHYTQKSLSLSPG
B3: PD-L1 303-CD155 665-CTLA-4 3037-Fc (Fc fusion)
chain: FTVTVPKDLYVVEYGSNMTIECKFPVEKQLDLAALIVYWEMEGKDIIQFVHGEEDQKAQHSSYRQRARLLKDQLSLGNAALQITDVKLQDAGVYRCMISYGGGADYKRITVKVNAGGGGSGGGGSGGGGSWPPPGTGDVVVQAPTQVSGFLGDSVTLPCYLQVPNMEVTHVSQLTWARHGESGSMAVFHQTQGPWYAESKRLEFVAARLGAELRNASLRVFGLRAEDEGNYTCQFVTFPQRSRSVDIWLRVLGGGGSGGGGSGGGGSKAMHVAQPAVVFASSHGIASFVCEYASPWKATEVRVTVLRQADSQVTEVCAATYMTGNELTFLDDSICTGTSSGNQVNLTIQGLRAMDTGLYICKVEQMYPPPYLLGIGNGTQIYVIDPEPCPDSDGSGGGGSEPKSSDKTHTCPPCPAPEAEGAPSVFLFPPKPKDTLMISRTPEVTCVVVDVSHEDPEVKFNWYVDGVEVHNAKTKPREEQYNSTYRVVSVLTVLHQDWLNGKEYKCKVSNKALPAPIEKTISKAKGQPREPQVYTLPPSRDELTKNQVSLTCLVKGFYPSDIAVEWESNGQPENNYKTTPPVLDSDGSFFLYSKLTVDKSRWQQGNVFSCSVMHEALHNHYTQKSLSLSPG
B4: CD 155 665 G4S FLAGHis (ligand)
chain: WPPPGTGDVVVQAPTQVSGFLGDSVTLPCYLQVPNMEVTHVSQLTWARHGESGSMAVFHQTQGPWYAESKRLEFVAARLGAELRNASLRVFGLRAEDEGNYTCQFVTFPQRSRSVDIWLRVLGGGGSDYKDDDDKHHHHHH
B5: CD155 665-CD58 3650-Fc (Fc fusion)
chain: WPPPGTGDVVVQAPTQVSGFLGDSVTLPCYLQVPNMEVTHVSQLTWARHGESGSMAVFHQTQGPWYAESKRLEFVAARLGAELRNASLRVFGLRAEDEGNYTCQFVTFPQRSRSVDIWLRVLGGGGSGGGGSGGGGSSQQIYGVVYGNVTFHVPSNVPLKEVLWKKQKDKVAELENSEFRAFSSFKNRVYLDTVSGSLTIYNLTSSDEDEYEMESPNITDTMKFFLYVLESGSGGGGSEPKSSDKTHTCPPCPAPEAEGAPSVFLFPPKPKDTLMISRTPEVTCVVVDVSHEDPEVKFNWYVDGVEVHNAKTKPREEQYNSTYRVVSVLTVLHQDWLNGKEYKCKVSNKALPAPIEKTISKAKGQPREPQVYTLPPSRDELTKNQVSLTCLVKGFYPSDIAVEWESNGQPENNYKTTPPVLDSDGSFFLYSKLTVDKSRWQQGNVFSCSVMHEALHNHYTQKSLSLSPG
B6: CTLA-4 3060-CD155 665-Fc (Fc fusion)
chain: KAMHVAQPAVVFASSHGIASFVCEYASPWKATEVRVTVLRQADSQVTEVCAATYMTGNELTFLDDSICTGTSSGNQVNLTIQGLRAMDTGLYICKVEQMYPPPYLLGIGNGTQIYVIDPEPCPDSDGGGGSGGGGSGGGGSWPPPGTGDVVVQAPTQVSGFLGDSVTLPCYLQVPNMEVTHVSQLTWARHGESGSMAVFHQTQGPWYAESKRLEFVAARLGAELRNASLRVFGLRAEDEGNYTCQFVTFPQRSRSVDIWLRVLGSGGGGSEPKSSDKTHTCPPCPAPEAEGAPSVFLFPPKPKDTLMISRTPEVTCVVVDVSHEDPEVKFNWYVDGVEVHNAKTKPREEQYNSTYRVVSVLTVLHQDWLNGKEYKCKVSNKALPAPIEKTISKAKGQPREPQVYTLPPSRDELTKNQVSLTCLVKGFYPSDIAVEWESNGQPENNYKTTPPVLDSDGSFFLYSKLTVDKSRWQQGNVFSCSVMHEALHNHYTQKSLSLSPG
B7: CD58 3650-PD-L1 303-PD-L1 303-CD58 3650 (other)
chain: SQQIYGVVYGNVTFHVPSNVPLKEVLWKKQKDKVAELENSEFRAFSSFKNRVYLDTVSGSLTIYNLTSSDEDEYEMESPNITDTMKFFLYVLESGGGGSGGGGSGGGGSFTVTVPKDLYVVEYGSNMTIECKFPVEKQLDLAALIVYWEMEGKDIIQFVHGEEDQKAQHSSYRQRARLLKDQLSLGNAALQITDVKLQDAGVYRCMISYGGGADYKRITVKVNAGGGGSGGGGSGGGGSFTVTVPKDLYVVEYGSNMTIECKFPVEKQLDLAALIVYWEMEGKDIIQFVHGEEDQKAQHSSYRQRARLLKDQLSLGNAALQITDVKLQDAGVYRCMISYGGGADYKRITVKVNAGSGGSGGGGSGGGGSSQQIYGVVYGNVTFHVPSNVPLKEVLWKKQKDKVAELENSEFRAFSSFKNRVYLDTVSGSLTIYNLTSSDEDEYEMESPNITDTMKFFLYVLESGSGGGGSDYKDDDDKHHHHHH
B8: CD58 3650-CD58 3650-PD-L1 303-PD-L1 303 (other)
chain: SQQIYGVVYGNVTFHVPSNVPLKEVLWKKQKDKVAELENSEFRAFSSFKNRVYLDTVSGSLTIYNLTSSDEDEYEMESPNITDTMKFFLYVLESGGGGSGGGGSGGGGSSQQIYGVVYGNVTFHVPSNVPLKEVLWKKQKDKVAELENSEFRAFSSFKNRVYLDTVSGSLTIYNLTSSDEDEYEMESPNITDTMKFFLYVLESGGGGSGGGGSGGGGSFTVTVPKDLYVVEYGSNMTIECKFPVEKQLDLAALIVYWEMEGKDIIQFVHGEEDQKAQHSSYRQRARLLKDQLSLGNAALQITDVKLQDAGVYRCMISYGGGADYKRITVKVNAGSGGSGGGGSGGGGSFTVTVPKDLYVVEYGSNMTIECKFPVEKQLDLAALIVYWEMEGKDIIQFVHGEEDQKAQHSSYRQRARLLKDQLSLGNAALQITDVKLQDAGVYRCMISYGGGADYKRITVKVNAGSGGGGSDYKDDDDKHHHHHH
B9: CD155 665-CTLA-4 3037-Fc (Fc fusion)
chain: B2 chain
B10: CTLA-4 3060-CD155 665-Fc (Fc fusion)
chain: B6 chain

Target: T1, TIGIT
Test: cell-based or functional assay

Row | 100 nM IFN-gamma (pg/mL), SEB assay [pg/mL] | Binder
1 | 6490 | B1
2 | 4310 | B2
3 | 7350 | B3
4 | 10300 | B4
5 | 5850 | B5
6 | 1900 | B6

Target: CD2 (human, UniProt P06729)
Test: cell-based or functional assay

Row | 100 nM IFN-gamma (pg/mL), SEB assay [pg/mL] | Binder
7 | 6490 | B1
8 | 16200 | B7
9 | 6030 | B8
10 | 5850 | B5

Target: PD-1 (human, UniProt Q15116)
Test: cell-based or functional assay

Row | 100 nM IFN-gamma (pg/mL), SEB assay [pg/mL] | Binder
11 | 16200 | B7
12 | 6030 | B8
13 | 7350 | B3

Target: T2, human CD86
Test: cell-based or functional assay

Row | 100 nM IFN-gamma (pg/mL), SEB assay [pg/mL] | Binder
14 | 4310 | B2
15 | 7350 | B3
16 | 1900 | B6

Target: T3, CD80
Test: flow cytometry, CHO-CD80 cells

Row | EC50 [nM] | Binder
17 | 4.1 | B9
18 | 1.8 | B10

Target: T4, human TIGIT
Test: flow cytometry, Jurkat/IL-2/TIGIT cells

Row | EC50 [nM] | Binder
19 | 0.6 | B9
20 | 3.4 | B10
